From the nanobody polyreactivity screen of Harvey et al. (2022)

Assay: yeast display, Sf9 membrane polyspecificity reagent, FACS + sequencing; frameworks hold sequencing errors
In short: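 A nanobody's polyreactivity label depends on the gate it was sorted from. Yeast display cells were stained with 10% biotinylated, detergent-solubilized Sf9 membrane reagent for 1 hour at 4 °C, enriched on streptavidin microbeads and sorted by FACS. The low and high (top ~1%) gates were set on anti-HA fluorescence for expression and streptavidin fluorescence for reagent binding.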

Row | Sequence | polyreactivity (PSR sort gate)
1 | QVQIVESGGGLVQAGGSLRLSCAASGRTFGIYAMGWYRQAPGKERELVDAIRWRDGSTYYADSVKGRFTISRDNAKNTVYLQMTSLKPEDTAVYYCAATSRVYVRGSYWKYGYWGQGTQVTVSS | high polyreactivity
2 | QVQLVESGGGLVQAGGSLRLSCAASGSTLVIYAMGWYRQAPGKERELVAAINFSDGSTSYADSVKGRFTISRDNAKNTVYLQMNSLKPEDTAVYYWGQGTQVTVSS | low polyreactivity
3 | QDQLVESGGGLVQAGGSLRLSCAASGSIIVRNAMGWYRQAPGKERELVAAISRSGSSTYYADSVKGRFTISRDNAKITVFCQMNSLKPEDTAVYYCAKRRPALRWIYYYWGQGTQVTVSS | high polyreactivity
4 | QVQHVESGGGLVQAGGSLRLSCDASGSTFPYYTMGWYRQAPGKERELVAAITWRGGRTYYADSVKGRFTISRDNAKNTVYLQMNSLKPEDTAVYYCATGYSYRGYSALSGYDYWGQGTQVTVSS | high polyreactivity
5 | QVQLVESGGGLVHAGGRLRLSCAAYGITFSSYAMGWYRQAPGKERELVAAITWSGTSTYYADSVKGRFTISRDNAKNTVYLQMNSLKPEYTAVSYCADEAGAPFSISHDYWGQGTQVTVSS | low polyreactivity
6 | QVQLVESGGGLVQAGGSLRLSSAASGRTFDFYAMGWYRQAPGKERELVAAITGSDTSTYYADSVKGRFTISRDNAKNTVYLQMNSLKPEDTAVYYCAADGQWAYTVDPYVIYYRLDYWGQGTQVTVSS | low polyreactivity
7 | QVQLVESGGGLVQAGGSLRLSCAASGSIFGGYAMGWYRQAPGKERELVASITASGGSTYYADSVKGRFTISRDNAKNTVYLQMNSLKPEDTAVYYCAAEVFSGYDYDYWGQGTQVTVSS | low polyreactivity
8 | QVQLVESGGGLVQAGGSLRLSCAASGPIFYRYAMGWYRQAPGKERELVAAISRGGRTYYADSVKGRFTISRDNAKNTVYLQMNRLKPEDTAVYYCATTYSLGSWGYDYWGQGTQVTVSS | high polyreactivity
9 | QVQLVESGGGLVQAGGSLRLSCAASGFTFGYYAMGWYRQAPGKERELVAGISRGGRTNYADSVKGRFTISRDNAKNTVYLQMNRLIPEDTAVFYCAARVVLSPGGYGYWGQGTQVTVSS | high polyreactivity
10 | QVQLVESGGGLVQEGGSLRLSCAASGFTLYGYTMGWYRQAPGKERELVAAISGSGGRTYYADSVKGRFTISRDNAKNTVYLQMNSLKPEVTEVYYCAADSRGTWYGYDYWGQGTQVTVSS | high polyreactivity
11 | QVQLVESGGGLVQAGGSLRLSCAASGRIFTTYAMGWYRQAPGKERELVARIRWRGGSTYYADSVKGRFTISRDNAKNTVYLKMNSLKPEDTAVYYCNADKYYGFDYWGQGTQVTVSS | high polyreactivity
12 | QVQLVESGGGLVQAGGSLRLSCAASGSTFASNAMGWYRQAPGKERELVAAISGSGGRTYYADSVKGRFTISRDNAKNTVYLQMNSLKQEDTAVYYCAADWVRRYNYWGQGTQVTVSS | high polyreactivity
13 | QVQLVESRGGLVQAGGSLRLSCASSGSIFFSNAMGWYRQAPGKERELVAAISKSGGSTYYADSVKGRFTISRDNAKNTVYLQMNSLKPEDTAVYYCAAERTFLYWAYDYWGQGTQVTVSS | high polyreactivity
14 | QVQLVESGGGLVQAGGSLRLSCAASGSTLVYNAMGWYRQAPGKERELVAAISRSGGITYYADSVKGRFTISRDNAKNTVYLQMNSLKPEDTAVYYCNAVVRTRYRPGYDYDYWGQGTQVTVSS | high polyreactivity
15 | QVQLVESGGGLVQAGGSLRLSCAASGLTFNVNAMGWYRQAPGKERELVARINTSGGSTSYADSVKGRFTISRDNAKNTVYLQMNSLKPEDTAVYYCAADRARYYSEYDYWGQGTQVTVSS | low polyreactivity
16 | QVQLVESGGGLVQAGGSLRLSCAASGFIFYRYAMGWYRQAPGKERELVAAISRSGGTTYYADSVKGRFTISRDNAKNTVYLQMNSLKPEDTAVYYCNVKRGTIGGYYYWGQGTQVTVSS | high polyreactivity
17 | QVQLVESGGGLVQAGGSLRLSCAASGSTFDRNAMGWYRQAPGKERELVASITWTGGSTYYADSVKGRFTISRDNAKNTVYLQMNSLKPEDTAVYYCNADLLYLDYLYGLDYWGQGTQVTVSS | high polyreactivity
18 | QVQLVESGGGLVQAGGSLRLSCAASGRTFRIYAMGWYRQAPGKEREFVAAITWSGGRTYYADSVKGRFTISRDNAKNTVYLQMNSLKPEDTAVYYCAADPTYLRTLRFGSYDYWGQGNQVTVSS | high polyreactivity
19 | QVQLVESGGGLVQAGGSLSLSCAASGSIFRINAMGWYRQATGKERELVARISWRAGNTYYADSVKGRFTISRDNAKNTVYLQMNSLKPEDTAVYYCNADYYVTGLYGPGYDYWGQGTKVTVSS | low polyreactivity
20 | QVQLVESGGGLVQAGGSLRLSCAASGRIFERYAMGWYRQAPGKERELVAAISVSGSGTYYADSVKGRFTISRDNAKNTVYLQMNSLKPEDTAVYYCAADASLLGLFQGYDYWGQGTQVTVSS | low polyreactivity
21 | QVQLVESGGGLVQAGGSLRLSCAASGSIFYKYAMGWYRQAPGKERELVAAISGSGGRTYYADSVKGRFTISRDNAKNTVYLQMNSLKPEDTAVYYCAAAKRTWRSDYWGQGTQVTVSS | high polyreactivity
22 | QVQLVESGGGLVQAGGSLRLSCAASGLIFVNAMGWYRQAPGKEREFVAAITYSTGSTYYADSVKGRFTISRDIAKNTVYLQMNSLKPEDTAVYYCAKDRSGHGTERDYWGQGTQVTVSS | low polyreactivity

Row | Sequence | polyreactivity (PSR sort gate)
23 | QVQLVESGGGLVQAGGSLRLSCAASGRTFSKYAMGWDRPAPGKERELVAGISRSGGSTYYADSVKGRFTISRDNAKNTVYLQMNSLKPEDTAVYYCAKRSVGGTGYYWGQGTQVTVSS | high polyreactivity
24 | QVQLVESGGVLVQAGGSLRLSCAASGSTFGLNAMGWYRQAPGKERELVAAITRSDITNYADSVKGRFTISRDNAKNTVYLQMNSLKPEDTAVYYCAARGLWPYDYWGQGTQVTVSS | low polyreactivity
25 | QVQLIESGGGLVKAGGSLRLSCAATGSIFYRNTMGWYRQAPGKERELVARISWSGGRTYYADSVKGRFTISRDNAKNTVYLQMNSLKPEDTAVYYCAASTYGQRGTSYGYWGQGTQVSVSS | low polyreactivity
26 | QVQLVESGGGLVQAGGSLRLSCAASGSTFHWYDMGWYRQAPGKERELVAGINSSGDGTYYADSVKGRFTISRDNAKYTVYLQMNSLKPEDTAVYYCAAPWWYYGVPYQTNKYDYWGQGTQVTVSS | low polyreactivity
27 | QVQLVDSGGGLVQAGGSLRLSCDASGLIFFFYAMRWYRQAPGKERELVAAISDEGVSTDYADSVKGRFTISRDNAKNTVYLQMNSLKPEDTAVYYCAAKTERVYPWFSFGYWGQGTQVTVSS | low polyreactivity
28 | QVQIVESGGGIVQAGGSLRLSCAASGRTLQTYVMGWYRQSPGKEREWVAAITRGGGSTYYADSVKGRFTISRDNAKNTVYLQMNSLKPEDTAVYYCAASALRFNSSFSHWYNYWGQGTQVTVSS | high polyreactivity
29 | QVQLVESGGGLVQAGGSLRLSCAASGSTSTYNAMGWYRQAPGTERELVAAITESGGSTYYADSVKGRFTISRDNAKNTVYLQMNSLKPEDTAVYYCAADQTYTYDYWGQGTQVTVSS | low polyreactivity
30 | QVQLVESGGGLVQAGGSLRLSCAASGFIIDSYAMGWYRQAPGKERELVATITKGGGRTYYADSVKGRFTISRDNAKNTVYLQMNSLKPEDTAVYYCNARGFSRRKGLDYWGQGTQVTVSS | low polyreactivity
31 | QVQLVESSGGLVQAGGSLSLICAASGIIFYGYAMGWYRQAPGKERELVASIRSGSNTYYADSVKGRFTISRDNAKNTVYLQMNSLKPEDTAFYSCAARVVPATFRFIRYPHPYYYWGQGTQVTVSS | low polyreactivity
32 | QVQLVESGGGLVQAGGSLRLSCAASGRLFHPYAMGWYRQAPGKERELVARITTSGGSTSYADSVKGRFTISRDNAKNTVYLQMNSLKPEDTAVYYSAADRARYYSEYDYWGQGTQVTVSS | low polyreactivity
33 | QVQLVESGGGLVQAGGSLRLSCAASGFIFRSNAMGWYRQAPWKEREFVAAITYSSGSTYYRNSVKGRFTISRDNAKNTVYLQMNSLKPEDTAVYYCATPVTNGFDYWGQGTQVTVSS | high polyreactivity
34 | QVQLVESGGGLVQAGGSLRLSCAASGSLFYSYAMGWDRPAPGKERELVAAIRRDGSTNYADSVKGRFTISRDNAKNTVYLQMNSLKPEDTAVYYCNADGWNTYIGPRRYRYDYWGQGTQVTVSS | low polyreactivity
35 | QVQLVESGGGLVQAGGSLRLSCAASGSTFYWYAMGWYRQAPGKERELVDDITFSSGGTYYADSVKGRFTISRDNAKNTVYLQMNSLKPEVTADYYCATEYSLWYTRDWQRYEYWGQGTQVTVSS | high polyreactivity
36 | QVQLVESGGGLVQAGGSLRLSCAASGRTFDINDMGWYRQAPGKEREFVAAIDWSGGYTYYADSVKGRFIISRDNAKNTVYLQMNSQKPEDTAVYYCNARRKRSYDYWGQGTQGTVSS | low polyreactivity
37 | QVQLVESGGGLVQAGGSLRLTSAASGSIFQPYAMGWYRQAPVKERELVASIRGSAGSTHYADSVKGRFTISRDNAKNTVYLQMNSLKPEDTAVYYCAARAVASHFSPRLYGYWGQGTQVTVSS | high polyreactivity
38 | QVQLVESGGGLVQAGGSLRLSCAASGRTFWKYAMGWSRQAPGKERELVAAITDDDSTDYADSVKGRFTISRDNAKNTVYLQMTRLKPEDTAVYYCNADSSRYYRALEYWGQGTQVTVSA | low polyreactivity
39 | QVQLVESGGGLVQAGGSLRLSSAASGRTFQRNVMGWYRQAPGKDRELVAAISSSGGGTYYADSVKGRFTISRDNAKNTVYLQMNSLKPEDTAVYYCAARYRSYGGYGYYYWGLGTQVTVSS | high polyreactivity
40 | QVKLLESGGGLVQAGGSLLLSCAASGSIFDGYSMVWYRQAPGKEREFVASIRFSTGRTYYADSVKGRFTISRDNAKNTVYLQMNSLKPEDTAVYYCNAPQGFVWRYSSWGPYDYWGQGTQVTVSS | high polyreactivity
41 | QVQLVESGGGLVQAGGSLRLSCAASGFIFRNYAMGWYRQAPGKERELVAAITRSGTSTYYADSVKGRFTISRDNAKNTVYLQMNSLKPEDTAVYYCAARAWSSRRRLMYYWGQGTQVTVSS | high polyreactivity
42 | QVQLVESGGGLVQAGGSLRLSCAASGSIFGSNAMGWYRQAPGKERELVAAITNTGRTNYADSVKGRFTISRDNAKNTVYLQMNSLKPEDTAVYYCNTDCYEFTHFVGGWYQIIDYDYWGQGSQVTVSS | low polyreactivity
43 | QVQLVESGGGLVQAGGSLRLSCAASGFIFTYYGMGWYRQAPGKERELVAAITWSGASTYYADSVKGRFTISRDNAKNTVYLQMNSLKPEDTAVYYCNAGWDSGIVQSDETVYKYDYWGQGTQVTVSS | low polyreactivity
